2 molecules from article PMC6823927 can be followed below.

Experiment [1] has as its target 175Cys-IgG1 (meditope-enabled trastuzumab IgG1 with Ala175 of the heavy chain changed to cysteine). The experiment is described as follows: disulfide conjugation, dye-antibody ratio.
In experiment [2] the target is 175Cys-Fab (meditope-enabled trastuzumab Fab with Ala175 of the heavy chain changed to cysteine). Description: cross-linking.

Non-standard residues stand in square brackets, D forms with d. No end group written: not given here. Dip = N[C@H](C(=O)O)C(c1ccccc1)c1ccccc1

As usually defined, the stoichiometry N is a count of units in the complex or per binding partner. Consider SQFD[Dip]CTRRLQSGGSK-Alexa647 [SQFDA(Ph)2…-Alexa647 meditope], for which, in experiment [1], the stoichiometry N amounted to 1.8 dyes per IgG. In the case of SQFD[Dip]CTRRLQSGGSK [SQFDA(Ph)2… meditope], in experiment [2], the stoichiometry N (meditope per Fab) turned out to be 1.
